Source: paper PMC4151990, “Tetrameric c-di-GMP Mediates Effective Transcription Factor Dimerization to Control Streptomyces Development” (Cell, 2014)

What was measured:
[1] = test system: T1, His6-BldD full length (Streptomyces venezuelae), ORF:0f1775d8; test: EMSA; conditions: EMSA: 10 mM Tris pH 7.5, 1 mM EDTA, 5% glycerol, 10 mM NaCl, 1 mM MgCl2, 0.5 ug poly[d(I-C)] in 20 ul, 20 min room temperature; 5% PAGE in 0.5x TBE
T1 sequence: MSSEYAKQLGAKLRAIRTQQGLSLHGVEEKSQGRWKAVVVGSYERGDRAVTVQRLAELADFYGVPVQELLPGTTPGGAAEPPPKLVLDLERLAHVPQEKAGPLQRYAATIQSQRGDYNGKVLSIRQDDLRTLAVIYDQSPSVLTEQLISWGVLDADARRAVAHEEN

[2] = molecular target: His6-BldD-DBD (S. venezuelae BldD DNA-binding domain, residues 1-79) (Streptomyces venezuelae); test: cross-linking; 10 μM protein, 1 mM DSS, no c-di-GMP; 100 mM NaH2PO4, 150 mM NaCl, pH 8, room temperature 30 min; SDS-PAGE, Coomassie
[3] = molecular target: T2, BldD (Streptomyces venezuelae, UniProt F2RCL8); test: fluorescence polarization; format: binding
T2 construct: gene SVEN_1089; CTD (residues 80-166), purified from Sf9 cells
T2 sequence (F2RCL8 80-166): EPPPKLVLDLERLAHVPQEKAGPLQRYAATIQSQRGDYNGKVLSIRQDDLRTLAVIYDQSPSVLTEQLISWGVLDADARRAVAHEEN

## CTAGCCACAGACACCGCGAAAAGGGAAGAAAACCCGCTAAATGGGGCATAGCTTTCGATGAACGACAGAAGGCTCGCGTCGCTCTCCTCTGTACGCGCCCCCTCACGTAGAGTGCCGAAGGGTGCCGTCCGACCCGTAACTCTTTCGAGTGACCGTCG (double strand) [bldM promoter fragment, 158 bp]
[1]
  binding: binds

## His6-BldD-DBD (S. venezuelae BldD DNA-binding domain, residues 1-79) (domain or fragment)
[2]
  stoichiometry N: 2

## 2′-O-(6-[Fluoresceinyl]aminohexylcarbamoyl)-cyclic diguanosine monophosphate [2′-Fluo-AHC-c-di-GMP]
[3]
  Kd: 2.5 ± 0.6 µM

## GTTCGAAGATGTGGCCGACGGCGTCCACCCGGAGCGGCGCTCTCCGCCGACGTTCGCGCACCGCGACCGCGCACTCACGCTACGCTCACCAGGATTCCGTCCAGGACACCCGCACCGACACACCCGACAGCAGAACGGCTCAAGGCAACGC (double strand) [whiG promoter fragment, 151 bp]
[1]
  binding: binds
